What was measured:
[1] = molecular target: Ribosome termination complex (70S ribosomes, fMet-STOP mRNA and fMet-tRNA^fMet) (E. coli); test: other fluorescence titration; 1 nM fluorescein-labeled A220C RF1 titrated with ribosome complexes (0-52 nM) in 1X 219-HEPES buffer; excitation 491 nm, emission 515 nm; quadratic fit
[2] = molecular target: Ribosome termination complex (70S ribosomes, fMet-STOP mRNA and fMet-tRNA^fMet) (E. coli); test: stopped-flow fluorescence; as a12, with RF3 preincubated with 1 mM GTP in the chase mixture
[3] = molecular target: Ribosome termination complex (70S ribosomes, fMet-STOP mRNA and fMet-tRNA^fMet) (E. coli); test: stopped-flow fluorescence; Fl-RF1 preincubated with ribosome complex, chased with excess unlabeled RF1, no RF3; Buffer 219 Tris pH 7.6, 26 C; double exponential fit, faster phase
[4] = molecular target: Ribosome termination complex (70S ribosomes, fMet-STOP mRNA and fMet-tRNA^fMet) (E. coli); test: stopped-flow fluorescence; with RF3 preincubated with 1 mM GDP in the chase mixture
[5] = molecular target: Ribosome termination complex formed with wild-type RF1 (E. coli) (UniProt P0A7I0); test: quick spin gel-filtration assay (Sephadex G-100) with SYPRO Ruby staining; RF3 preincubated with 2 mM GDPNP, mixed with release complexes (10 nM to 2 uM, threefold excess RF1), 10 min 37 C, Buffer 219 HEPES pH 7.6; quadratic fit; KD with wild-type RF1 complexes is called apparent (K_D,app)
Ribosome termination complex formed with wild-type RF1 (E. coli), sequence (P0A7I0 whole entry, looked up, one chain of several): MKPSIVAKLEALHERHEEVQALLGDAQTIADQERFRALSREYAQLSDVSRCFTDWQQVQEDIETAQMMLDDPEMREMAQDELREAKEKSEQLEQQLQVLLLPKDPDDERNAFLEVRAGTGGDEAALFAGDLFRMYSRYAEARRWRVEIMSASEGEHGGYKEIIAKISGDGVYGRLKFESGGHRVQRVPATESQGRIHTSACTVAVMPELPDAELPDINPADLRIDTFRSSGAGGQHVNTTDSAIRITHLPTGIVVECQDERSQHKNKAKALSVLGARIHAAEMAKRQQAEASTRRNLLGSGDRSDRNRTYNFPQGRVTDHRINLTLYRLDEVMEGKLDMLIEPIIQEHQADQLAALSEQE

[6] = molecular target: Ribosome termination complex formed with GAQ-RF1 (E. coli) (UniProt P0A7I0); test: as above
Ribosome termination complex formed with GAQ-RF1 (E. coli), sequence (P0A7I0 whole entry, looked up, one chain of several): as above

[7] = molecular target: Ribosome termination complex formed with wild-type RF1 (E. coli) (UniProt P0A7I0); test: quick spin gel-filtration assay (Sephadex G-100) with SYPRO Ruby staining; as a8, RF3 preincubated with 2 mM GDP
[8] = molecular target: Ribosome termination complex formed with GAQ-RF1 (E. coli) (UniProt P0A7I0); test: as above
[9] = molecular target: Ribosome termination complex formed with wild-type RF1 (E. coli) (UniProt P0A7I0); test: quick spin gel-filtration assay (Sephadex G-100) with SYPRO Ruby staining; as a8, no nucleotide added to RF3 (copurified with GDP 1:1; 'apo' assay, no free GDP or GTP)

His-tagged RF3 (class 2 release factor), sequence (P0A7I4 whole entry): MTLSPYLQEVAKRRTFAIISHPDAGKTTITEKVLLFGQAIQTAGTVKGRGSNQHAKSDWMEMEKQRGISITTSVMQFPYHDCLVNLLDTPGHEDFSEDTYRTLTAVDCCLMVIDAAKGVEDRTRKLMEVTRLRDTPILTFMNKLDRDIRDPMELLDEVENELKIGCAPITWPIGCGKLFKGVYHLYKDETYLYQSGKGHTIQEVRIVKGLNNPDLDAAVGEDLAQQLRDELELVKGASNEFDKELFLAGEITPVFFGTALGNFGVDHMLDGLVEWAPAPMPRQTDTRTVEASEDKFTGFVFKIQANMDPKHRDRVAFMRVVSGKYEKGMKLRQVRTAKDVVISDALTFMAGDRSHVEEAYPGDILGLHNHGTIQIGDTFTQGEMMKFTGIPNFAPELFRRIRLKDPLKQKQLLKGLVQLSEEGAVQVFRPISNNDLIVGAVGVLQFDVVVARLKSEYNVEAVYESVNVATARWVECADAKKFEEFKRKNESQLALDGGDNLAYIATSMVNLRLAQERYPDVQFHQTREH

Substance: Fluorescein-labeled A220C RF1 (from UniProt P0A7I0 1-360) (natural protein)
- Kd [1]: 2.5 nM

Substance: Fluorescein-labeled GAQ-RF1 (single-cysteine L82C or A220C) (from UniProt P0A7I0 1-360) (natural protein)
- koff in the presence of RF3:GTP [2]: 0.14 s⁻¹
- koff [3]: 0.09 s⁻¹

Substance: Fluorescein-labeled single-cysteine RF1 (either L82C or A220C) (from UniProt P0A7I0 1-360) (natural protein)
- koff in the presence of RF3:GDP [4]: 0.3 s⁻¹
- koff in the presence of RF3:GTP [2]: 2.9 s⁻¹
- koff [3]: 0.005 s⁻¹

Substance: His-tagged RF3 (class 2 release factor) (from UniProt P0A7I4 1-529) (natural protein)
- Kd [5]: 50 nM
- Kd [6]: 10 nM
- Kd [7]: 430 nM
- Kd [8]: 1000 nM
- Kd [9]: 36 nM
